Columns and labels:
[1] = biological target: c-Met recombinant chimera (R&D Systems) (UniProt P08581); test: SPR; c-Met chimera amine-coupled to a CM5 chip (200-1000 RU), Biacore 2000, 25 °C, HBS-EP pH 7.4, 5 uL/min; CSF diluted 1:1 in PBS flowed over; samples: septic nosocomial meningitis (n = 33)
[2] = biological target: c-Met recombinant chimera (R&D Systems) (UniProt P08581); test: SPR; c-Met chimera amine-coupled to a CM5 chip (200-1000 RU), Biacore 2000, 25 °C, HBS-EP pH 7.4, 5 uL/min; CSF diluted 1:1 in PBS flowed over; samples: septic community-acquired meningitis (n = 22)

Chain of UniProt P08581 (P08581 25-932, change not shown): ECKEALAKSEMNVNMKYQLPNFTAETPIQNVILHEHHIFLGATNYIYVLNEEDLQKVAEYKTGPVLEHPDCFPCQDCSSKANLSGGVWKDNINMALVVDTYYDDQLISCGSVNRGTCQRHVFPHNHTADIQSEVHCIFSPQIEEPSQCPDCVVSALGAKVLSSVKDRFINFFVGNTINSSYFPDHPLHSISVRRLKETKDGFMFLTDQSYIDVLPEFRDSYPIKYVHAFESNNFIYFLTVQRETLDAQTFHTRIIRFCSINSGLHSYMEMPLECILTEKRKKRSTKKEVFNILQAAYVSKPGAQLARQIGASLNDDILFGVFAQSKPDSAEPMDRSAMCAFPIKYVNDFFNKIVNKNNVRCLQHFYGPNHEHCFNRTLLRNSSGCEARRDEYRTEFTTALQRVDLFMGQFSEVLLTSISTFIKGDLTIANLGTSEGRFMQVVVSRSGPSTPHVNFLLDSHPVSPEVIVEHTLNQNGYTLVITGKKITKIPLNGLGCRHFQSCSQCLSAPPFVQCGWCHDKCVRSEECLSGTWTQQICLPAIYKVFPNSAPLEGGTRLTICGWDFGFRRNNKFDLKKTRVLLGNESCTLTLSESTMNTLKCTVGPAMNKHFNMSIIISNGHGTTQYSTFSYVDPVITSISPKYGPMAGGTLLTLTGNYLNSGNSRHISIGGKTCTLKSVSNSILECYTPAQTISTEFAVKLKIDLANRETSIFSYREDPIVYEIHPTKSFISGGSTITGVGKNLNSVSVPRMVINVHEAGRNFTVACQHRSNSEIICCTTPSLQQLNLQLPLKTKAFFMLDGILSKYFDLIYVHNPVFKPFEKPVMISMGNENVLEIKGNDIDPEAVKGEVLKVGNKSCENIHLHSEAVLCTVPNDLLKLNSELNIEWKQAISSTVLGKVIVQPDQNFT

Hepatocyte growth factor (CSF-derived) (ligand)
C-Met binding (RU), median of the group [1]: 27.3 RU | C-Met binding (RU), median of the group [2]: 56 RU

From article PMC4582940
